Publication PMC7375243, “Structural Basis of Human Helicase DDX21 in RNA Binding, Unwinding, and Antiviral Signal Activation” (Advanced Science, 2020)
Changes are numbered by the printed parent chain.

Experiments:
Conditions in all cases: protein: recombinant; tags: N-terminal His-SUMO, removed by ULP1; label: FAM; single strand
DDX21 core 4R to A = target: T1, DDX21 core 4R to A (human, UniProt Q9NR30 188-563, R255A;R270A;R318A;R476A); test: UV crosslinking; reduced by more than half; MST: 50 mM Tris pH 7.5, 50 mM KCl, 2 mM MgCl2, 1 mM TCEP, 0.01% NP-40, 0.05 mg/mL BSA, 2 mM AMPPNP, 50 nM FAM-RNA; temperature not given; crosslinking buffer not in material
T1 sequence: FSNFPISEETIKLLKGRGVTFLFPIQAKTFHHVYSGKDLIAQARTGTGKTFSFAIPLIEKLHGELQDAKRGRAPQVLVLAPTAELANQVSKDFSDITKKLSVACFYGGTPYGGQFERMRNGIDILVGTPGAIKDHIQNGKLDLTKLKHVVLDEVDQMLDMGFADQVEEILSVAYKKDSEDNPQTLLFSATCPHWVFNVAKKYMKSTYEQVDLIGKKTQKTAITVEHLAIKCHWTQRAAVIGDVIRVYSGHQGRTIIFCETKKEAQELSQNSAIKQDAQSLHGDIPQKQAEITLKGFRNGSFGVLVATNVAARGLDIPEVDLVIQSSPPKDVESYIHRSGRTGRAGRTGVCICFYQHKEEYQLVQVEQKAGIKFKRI

DDX21 core 3R to A = target: T2, DDX21 core 3R to A (human, UniProt Q9NR30 188-563, R270A;R318A;R476A); test: as above
T2 sequence: T1 sequence with A68R

[1] = target: T3, DDX21 core D339H/E340G (DEV mutant) (human, UniProt Q9NR30 188-563, D339H;E340G); test: UV crosslinking; highest activity of all; MST: 50 mM Tris pH 7.5, 50 mM KCl, 2 mM MgCl2, 1 mM TCEP, 0.01% NP-40, 0.05 mg/mL BSA, 2 mM AMPPNP, 50 nM FAM-RNA; temperature not given; crosslinking buffer not in material
T3 sequence: T1 sequence with A68R, A83R, A131R, D152H, E153G, A289R

DDX21 core 8A = target: T4, DDX21 core 8A (human, UniProt Q9NR30 188-563, R255A;R270A;T315A;R318A;D321A;Q352A;R476A;T494A); test: UV crosslinking; comparable to WT; MST: 50 mM Tris pH 7.5, 50 mM KCl, 2 mM MgCl2, 1 mM TCEP, 0.01% NP-40, 0.05 mg/mL BSA, 2 mM AMPPNP, 50 nM FAM-RNA; temperature not given; crosslinking buffer not in material
T4 sequence: T1 sequence with T128A, D134A, Q165A, T307A

DDX21 core 7A = target: T5, DDX21 core 7A (human, UniProt Q9NR30 188-563, R270A;T315A;R318A;D321A;Q352A;R476A;T494A); test: as above
T5 sequence: T1 sequence with A68R, T128A, D134A, Q165A, T307A

UUUUUUUUUUUUUUU (ssRNA) [FAM-U15]
binding signal (DDX21 core 4R to A): < 50 % of WT | binding signal (DDX21 core 3R to A): < 50 % of WT | binding result [1]: binds | binding result (DDX21 core 8A): binds | binding result (DDX21 core 7A): binds
